Assays:
T-HEp3 cells = assay: Adhesion assay to fibronectin, T-HEp3 cells; format: cell-based, human; settings: peptide 20 or 200 μM, 15 min
[1] = target: T1, purified human α5β1-integrin (Homo sapiens, UniProt P05556+P08648); assay: Solid phase dot-ELISA: α5β1-integrin binding to immobilized uPAR peptides and suPAR; settings: for α5β1-integrin binding to immobilized peptide: peptide immobilized on nitrocellulose, α5β1-integrin 750 ng/ml; for reduction of integrin binding to immobilized uPAR: α5β1-integrin pre-incubated 15 min with 100 fold molar excess of peptide, suPAR 1.5 μg
T1 construct: purchased Chemicon International (Temecula, Calif.)
T1 sequence (P08648 42-894 limits assumed): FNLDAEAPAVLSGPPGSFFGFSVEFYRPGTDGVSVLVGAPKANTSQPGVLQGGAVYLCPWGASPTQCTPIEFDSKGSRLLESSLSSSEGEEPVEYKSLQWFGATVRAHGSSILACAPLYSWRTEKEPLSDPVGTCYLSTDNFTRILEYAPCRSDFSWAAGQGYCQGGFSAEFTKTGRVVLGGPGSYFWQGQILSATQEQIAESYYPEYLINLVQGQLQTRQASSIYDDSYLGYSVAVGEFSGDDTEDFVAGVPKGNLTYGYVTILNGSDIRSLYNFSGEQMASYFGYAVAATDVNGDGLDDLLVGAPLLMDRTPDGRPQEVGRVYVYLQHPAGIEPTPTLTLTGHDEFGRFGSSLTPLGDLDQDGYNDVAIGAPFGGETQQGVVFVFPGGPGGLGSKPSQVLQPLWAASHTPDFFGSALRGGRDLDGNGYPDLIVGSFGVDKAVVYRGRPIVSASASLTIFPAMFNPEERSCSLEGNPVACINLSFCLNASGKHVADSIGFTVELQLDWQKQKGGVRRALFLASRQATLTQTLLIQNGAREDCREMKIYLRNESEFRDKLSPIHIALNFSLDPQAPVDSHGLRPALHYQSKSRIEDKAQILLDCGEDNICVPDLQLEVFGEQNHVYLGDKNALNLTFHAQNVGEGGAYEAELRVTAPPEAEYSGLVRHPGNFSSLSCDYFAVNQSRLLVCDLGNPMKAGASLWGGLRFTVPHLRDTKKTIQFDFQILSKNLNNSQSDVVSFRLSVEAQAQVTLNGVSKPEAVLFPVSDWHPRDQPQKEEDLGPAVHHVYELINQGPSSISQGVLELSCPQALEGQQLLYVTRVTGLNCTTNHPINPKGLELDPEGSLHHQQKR
T1 sequence (P08648 895-1049 limits assumed): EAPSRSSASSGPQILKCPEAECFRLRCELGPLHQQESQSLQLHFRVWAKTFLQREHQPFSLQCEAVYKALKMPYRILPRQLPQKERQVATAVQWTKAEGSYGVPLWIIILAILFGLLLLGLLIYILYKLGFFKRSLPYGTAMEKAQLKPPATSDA
T1 sequence (P05556 21-798): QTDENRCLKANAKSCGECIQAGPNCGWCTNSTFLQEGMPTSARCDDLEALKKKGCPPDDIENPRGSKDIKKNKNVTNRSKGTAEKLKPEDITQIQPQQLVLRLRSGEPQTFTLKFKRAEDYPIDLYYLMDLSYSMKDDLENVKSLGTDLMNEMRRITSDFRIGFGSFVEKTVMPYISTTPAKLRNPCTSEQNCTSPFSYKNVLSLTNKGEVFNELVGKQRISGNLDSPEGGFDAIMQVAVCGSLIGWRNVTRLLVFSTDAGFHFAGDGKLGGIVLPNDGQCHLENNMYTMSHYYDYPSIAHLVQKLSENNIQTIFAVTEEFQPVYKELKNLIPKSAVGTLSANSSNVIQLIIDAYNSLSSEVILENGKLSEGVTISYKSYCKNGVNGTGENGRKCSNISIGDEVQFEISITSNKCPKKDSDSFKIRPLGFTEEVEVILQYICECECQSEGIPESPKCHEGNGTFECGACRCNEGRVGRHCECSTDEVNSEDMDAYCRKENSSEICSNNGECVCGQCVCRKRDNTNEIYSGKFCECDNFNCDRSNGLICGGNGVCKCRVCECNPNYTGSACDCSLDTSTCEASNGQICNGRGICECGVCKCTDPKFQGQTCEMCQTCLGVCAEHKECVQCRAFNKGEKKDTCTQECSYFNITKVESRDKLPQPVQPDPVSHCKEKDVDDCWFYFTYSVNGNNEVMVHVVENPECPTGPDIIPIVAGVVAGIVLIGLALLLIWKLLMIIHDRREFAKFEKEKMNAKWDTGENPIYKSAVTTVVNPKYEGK
Method: FIGS. 1A-H show the interaction between α5β1-integrin and immobilized uPAR and uPAR-derived synthetic peptides through solid-phase dot-ELISA. […] Bound integrin was detected with anti-α5 integrin antibody followed by goat anti-rabbit IgG (H+L) HRP conjugated secondary antibody and developed with enhanced chemiluminescence (“ECL”). FIG. 1B is a graph showing that binding of integrin to suPAR is saturable. SuPAR (1.5 μg) was immobilized on nitrocellulose membrane in triplicates, incubated with 0, 0.1, 0.5, 1, 2, and 4 μg/ml of α5β1-integrin and tested for integrin binding as in FIG. 1A. The dots were scanned with NIH Image. Mean and SE are shown. […] Peptides representing regions located in each of the three uPAR-domains were immobilized, incubated with α5β1-integrin, and analyzed as in FIG. 1A. Only peptide 240-248 binds α5β1-integrin. FIG. 1D is a graph showing that peptide 240-248 inhibits integrin binding to suPAR. The α5β1-integrin (750 ng/ml) was pre-incubated for 15 min at room temperature with 100 fold molar excess of 240-248 or 17-24 peptides, or with no peptide (Control) and the mixtures were applied to immobilized suPAR (1.5 μg), 2 dots per mixture, and developed as in FIG. 1A. The dots were scanned with NIH Image. The results (bars) show % of control, the lines show range. FIG. 1E is a graph showing binding of α5β1- and α3β1-integrin to suPAR and peptide 240-248. Dot-ELISA was performed in duplicate as in FIG. 1A, except that purified α5β1-integrin and α3β1-integrin (750 ng/ml) were used. Bound integrins were detected with the appropriate previously titrated antibodies followed by goat anti-rabbit IgG (H+L) HRP conjugated secondary antibody and detection with ECL. The graph represents the mean and range of two values: α5β1-integrin binding to peptide 240-248 (▪) or SuPAR (▴); α3β1-integrin binding to peptide 240-248 ([…]) and SuPAR (x). […] Peptide 240-248 (domain III), 17-24 (domain I), and the S245A mutant of peptide 240-248 were immobilized and tested for integrin binding as in FIG. 1A. FIGS. 1G-H show the crystal structure of human uPAR shown as a surface representation. The three individual domains of uPAR in FIG. 1G are indicated as follows: D1 is on the right side, DII is on the top of the model, and Diii is on the left of the model. In FIG. 1H, the order of the domains is inversed. […] The location of the COOH-terminal in uPAR domain III harboring the GPI-anchor is indicated by the arrow (FIG. 1H). FIGS. 1G-H were created by the program PyMol (DeLano Scientific) using the coordinates 1YWH.
FIGS. 2A-B show solid phase dot-ELISA of suPAR. […] Binding was detected as in FIG. 1A and the dots were scanned with NIH Image. Mean of the two-scanned value for each suPAR concentration are shown in the bottom panel. Mutation of residues in the 239-249 sequence reduced the integrin binding by ˜50 to 94%. suPAR^E33A (▪), suPAR^wt (▴), suPAR^R239A (♦), suPAR^H249A (x), suPAR^Q248A (∘), suPAR^M246A ([…]), suPAR^S245A (□).
Synthetic uPAR-derived peptides and mutant proteins were diluted to 0.5, 1, and 2 μg/100 μl of PBS. […] The strips, pinned to the bottom of a plastic box, were washed with TBS with 0.1% Tween 20, overlaid with 500 μl of rabbit anti-integrin α5 polyclonal antibody (1:650) for 1 hr at RT, washed with TBST twice, incubated with goat anti-rabbit IgG (H+L) HRP conjugated secondary antibody (1:2000) for 1 hr, washed 3 times with TBST, and developed with ECL. The dots were scanned with NIH image.

Substance | adhesion to fibronectin (T-HEp3 cells) | α5β1-integrin binding to immobilized peptide [1] | reduction of integrin binding to immobilized uPAR [1]
peptide 17-24: synthetic uPAR-derived peptide, domain I amino acid 17-24: CALGQDLC (SEQ ID NO:5); negative control [reference compound] | no effect | no binding | negligible effect
peptide 240-248: synthetic uPAR-derived peptide, domain III residues 240-248: GCATASMCQ (SEQ ID NO:9) | reduced adhesion to fibronectin | bound α5β1-integrin in a dose-dependent fashion | more than 70%

From patent publication US20100249184A1, “INDUCTION AND/OR MAINTENANCE OF TUMOR DORMANCY BY DISRUPTION OF UROKINASE PLASMINOGEN ACTIVATOR RECEPTOR-INTEGRIN INTERACTION” (MOUNT SINAI SCHOOL OF MEDICINE, priority 2007, published 2010)
